From patent publication EP4685489A2 (Roche Diagnostics GmbH, dated 2026)
Blank lines part the entries; values can stand above or below the binder they belong to.

Key:
[1] = target: T1, recombinant N-terminal fragment (residues 1-330) of human cardiac-type Myosin-binding protein C3 with … (human, UniProt Q14896 1-330); assay: SPR (Biacore) at 37°C, antibody captured via anti-mouse Fc, MYBPC3 0.4-90 nM, Langmuir 1:1 fit over 2 series
T1 construct: expressed in HEK293-F cells and purified as a monomer; also called MYBPC3; N-terminal MyBPC-Fragment (1-330)
T1 sequence (Q14896 other isoform, or with tags, fused parts or gaps limits assumed): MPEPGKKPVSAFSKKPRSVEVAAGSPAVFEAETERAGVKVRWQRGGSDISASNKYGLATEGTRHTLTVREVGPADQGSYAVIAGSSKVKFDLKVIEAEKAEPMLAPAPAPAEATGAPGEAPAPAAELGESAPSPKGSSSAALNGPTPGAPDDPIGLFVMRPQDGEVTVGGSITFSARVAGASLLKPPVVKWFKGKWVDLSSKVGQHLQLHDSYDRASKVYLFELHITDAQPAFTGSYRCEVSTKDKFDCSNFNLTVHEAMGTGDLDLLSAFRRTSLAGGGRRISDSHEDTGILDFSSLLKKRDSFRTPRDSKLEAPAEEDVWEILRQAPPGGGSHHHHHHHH

[2] = target: T1, recombinant N-terminal fragment …; assay: Elecsys ECLIA sandwich; row antibody biotinylated (capture), second antibody ruthenylated 13F11 (detection); 2.7 pg/mL MYBPC3
[3] = target: T1, recombinant N-terminal fragment …; assay: Elecsys ECLIA sandwich; row antibody biotinylated (capture), second antibody ruthenylated 7B5 (detection); 0.9 pg/mL MYBPC3
[4] = target: T1, recombinant N-terminal fragment …; assay: sandwich ELISA, streptavidin MTP; row antibody biotinylated (capture), second antibody DIG-labelled 4.1.1 (detection); 1 ng/mL MYBPC3
[5] = target: T1, recombinant N-terminal fragment …; assay: Elecsys ECLIA sandwich; row antibody biotinylated (capture), second antibody ruthenylated 7D5 (detection); 0.9 pg/mL MYBPC3
[6] = target: T1, recombinant N-terminal fragment …; assay: Elecsys ECLIA sandwich; row antibody biotinylated (capture), second antibody ruthenylated 8H1 (detection); 0.9 pg/mL MYBPC3
[7] = target: T1, recombinant N-terminal fragment …; assay: Elecsys ECLIA sandwich; row antibody biotinylated (capture), second antibody ruthenylated 11F2 (detection); 2.7 pg/mL MYBPC3
[8] = target: T1, recombinant N-terminal fragment …; assay: Elecsys ECLIA sandwich; row antibody biotinylated (capture), second antibody ruthenylated 7D5 (detection); 2.7 pg/mL MYBPC3
[9] = target: T1, recombinant N-terminal fragment …; assay: Elecsys ECLIA sandwich; row antibody biotinylated (capture), second antibody ruthenylated 8H1 (detection); 2.7 pg/mL MYBPC3
[10] = target: T1, recombinant N-terminal fragment …; assay: sandwich ELISA, streptavidin MTP; row antibody biotinylated (capture), second antibody DIG-labelled 7B5 (detection); 2.7 pg/mL MYBPC3
[11] = target: T1, recombinant N-terminal fragment …; assay: sandwich ELISA, streptavidin MTP; row antibody biotinylated (capture), second antibody DIG-labelled 5B8 (detection); 2.7 pg/mL MYBPC3
[12] = target: T1, recombinant N-terminal fragment …; assay: Elecsys ECLIA sandwich; row antibody biotinylated (capture), second antibody ruthenylated 25H1 (detection); 0.9 pg/mL MYBPC3
[13] = target: T1, recombinant N-terminal fragment …; assay: Elecsys ECLIA sandwich; row antibody biotinylated (capture), second antibody ruthenylated 13F11 (detection); 0.9 pg/mL MYBPC3
[14] = target: T1, recombinant N-terminal fragment …; assay: sandwich ELISA, streptavidin MTP; row antibody biotinylated (capture), second antibody DIG-labelled 4.6.6 (detection); 1 ng/mL MYBPC3
[15] = target: T1, recombinant N-terminal fragment …; assay: sandwich ELISA, streptavidin MTP; row antibody biotinylated (capture), second antibody DIG-labelled 4.7.10 (detection); 1 ng/mL MYBPC3
[16] = target: T1, recombinant N-terminal fragment …; assay: Elecsys ECLIA sandwich; row antibody biotinylated (capture), second antibody ruthenylated 25H1 (detection); 2.7 pg/mL MYBPC3
[17] = target: T1, recombinant N-terminal fragment …; assay: Elecsys ECLIA sandwich; row antibody biotinylated (capture), second antibody ruthenylated 5B8 (detection); 2.7 pg/mL MYBPC3
[18] = target: T1, recombinant N-terminal fragment …; assay: Elecsys ECLIA sandwich; row antibody biotinylated (capture), second antibody ruthenylated 5B8 (detection); 0.9 pg/mL MYBPC3
[19] = target: T1, recombinant N-terminal fragment …; assay: Elecsys ECLIA sandwich; row antibody biotinylated (capture), second antibody ruthenylated 7B5 (detection); 2.7 pg/mL MYBPC3
[20] = target: T1, recombinant N-terminal fragment …; assay: Elecsys ECLIA sandwich; row antibody biotinylated (capture), second antibody ruthenylated 11F2 (detection); 0.9 pg/mL MYBPC3
[21] = target: T1, recombinant N-terminal fragment …; assay: SPR (Biacore) at 37°C, antibody captured via anti-rabbit Fc, MYBPC3 0.4-90 nM, Langmuir 1:1 fit over 2 series
[22] = target: T1, recombinant N-terminal fragment …; assay: Elecsys ECLIA sandwich; row antibody biotinylated (capture), second antibody ruthenylated 4.1.1 (detection); 2.7 pg/mL MYBPC3
[23] = target: T1, recombinant N-terminal fragment …; assay: sandwich ELISA, streptavidin MTP; row antibody biotinylated (capture), second antibody DIG-labelled 4.7.10 (detection); 2.7 pg/mL MYBPC3
[24] = target: T1, recombinant N-terminal fragment …; assay: Elecsys ECLIA sandwich; row antibody biotinylated (capture), second antibody ruthenylated 4.1.1 (detection); 0.9 pg/mL MYBPC3
[25] = target: T1, recombinant N-terminal fragment …; assay: sandwich ELISA, streptavidin MTP; row antibody biotinylated (capture), second antibody DIG-labelled 4.1.1 (detection); 2.7 pg/mL MYBPC3

Kd [1]: 0.056 nM | koff [1]: 0.00012 s⁻¹ | kon [1]: 2.1e+06 M⁻¹ s⁻¹ | ratio (2.7 pg/mL) /blank [2]: 1.32 | ratio (0.9 pg/mL) / blank [3]: 1.11 | Ratio (Δ OD 1 ng/mL MYBPC3) / blank [4]: 1.09 | ratio (0.9 pg/mL) / blank [5]: 1.02 | ratio (0.9 pg/mL) / blank [6]: 1.02 | ratio (2.7 pg/mL) /blank [7]: 1 | ratio (2.7 pg/mL) /blank [8]: 1.09 | ratio (2.7 pg/mL) /blank [9]: 1.01 | Ratio (Δ OD 2.7 pg/mL/blank) [10]: 1.43 | Ratio (Δ OD 2.7 pg/mL/blank) [11]: 0.99 | ratio (0.9 pg/mL) / blank [12]: 1.01 | ratio (0.9 pg/mL) / blank [13]: 1.14 | Ratio (Δ OD 1 ng/mL MYBPC3) / blank [14]: 3.39 | Ratio (Δ OD 1 ng/mL MYBPC3) / blank [15]: 23.6 | ratio (2.7 pg/mL) /blank [16]: 1 | ratio (2.7 pg/mL) /blank [17]: 1 | ratio (0.9 pg/mL) / blank [18]: 0.99 | ratio (2.7 pg/mL) /blank [19]: 1.32 | ratio (0.9 pg/mL) / blank [20]: 1.01
B1: monoclonal antibody 4.1.1 (antibody, V domains shown)
VH: QVQLKESGPGLVAPSQSLSITCTVSGFSLTGYGVNWVRQPPGKGLEWLGMIWGDGSTDYNSVYKSRLSISKDNSKSQVFLKMNSLQTDDTARYYCARRDTGGASMDYWGQGTSVTVSS
VL: DILMTQSPAILSVSPGERVSFSCRASQNIGTNMHWYQQRTNGSPRLLIRFASESFSGIPSRFSGTGSGTDFTLRINSVESEDIADYYCQQSYNWPFTFGAGTKLELK
notes: Mouse hybridoma monoclonal IgG; Biotinylated, DIG-labelled or ruthenylated in the sandwich assays; also called M-4.1.1; M.4.1.1

Kd [21]: 0.19 nM | koff [21]: 0.00051 s⁻¹ | kon [21]: 2.7e+06 M⁻¹ s⁻¹ | ratio (2.7 pg/mL) /blank [22]: 1.4 | ratio (2.7 pg/mL) /blank [2]: 1.02 | Ratio (Δ OD 2.7 pg/mL/blank) [23]: 0.98 | Ratio (Δ OD 2.7 pg/mL/blank) [10]: 0.98 | Ratio (Δ OD 2.7 pg/mL/blank) [11]: 1.01 | ratio (0.9 pg/mL) / blank [12]: 1.01 | ratio (0.9 pg/mL) / blank [13]: 1.01 | ratio (0.9 pg/mL) / blank [24]: 1.18 | ratio (2.7 pg/mL) /blank [16]: 1.03 | Ratio (Δ OD 2.7 pg/mL/blank) [25]: 3.07
B2: monoclonal antibody 7B5 (antibody, V domains shown)
VH: QEQLEESGGGLVKPGGTLTLTCKVSGFDFSSGYDMCWVRQAPGKGLESIACIGSSSASTWYANWVNGRFTVSRSTSLNTVDLKMTSLTVADTATYFCARESSTEYYYNLWGPGTLVTVSS
VL: DIVMTQTPASVEAAVGGTVTIKCQASQSIGNALAWYQQKPGQPPKLLIYSTSYLPSGVPSRFKGGGSGAEYTLTISDLECADAATYYCQSYYVSTSSSDRSSFGGGTEVVVK
notes: Rabbit B-cell derived monoclonal IgG, expressed recombinantly in HEK293 cells; Biotinylated, DIG-labelled or ruthenylated in the sandwich assays; also called mAB 7B5; MAK<MYPBC3<rK-7B5-IgG(SPA)
